Assay results reported in IntAct's records for PubMed 28712572.

target: gbrap_human GABARAP (UniProt O95166)
Sequence (O95166 whole entry): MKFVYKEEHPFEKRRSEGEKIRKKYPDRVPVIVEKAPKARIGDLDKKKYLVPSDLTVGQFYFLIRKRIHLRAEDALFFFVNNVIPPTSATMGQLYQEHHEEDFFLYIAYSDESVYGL

Substance	effect of a mutation on the interaction
Pericentriolar material 1 protein (Homo sapiens), Q15154 D1959A	with no effect
Pericentriolar material 1 protein (Homo sapiens), Q15154 D1959C	with no effect
Pericentriolar material 1 protein (Homo sapiens), Q15154 D1959E	with no effect
Pericentriolar material 1 protein (Homo sapiens), Q15154 D1959F	with no effect
Pericentriolar material 1 protein (Homo sapiens), Q15154 D1959G	with no effect
Pericentriolar material 1 protein (Homo sapiens), Q15154 D1959H	with no effect
Pericentriolar material 1 protein (Homo sapiens), Q15154 D1959I	with no effect
Pericentriolar material 1 protein (Homo sapiens), Q15154 D1959K	decreasing interaction strength
Pericentriolar material 1 protein (Homo sapiens), Q15154 D1959L	with no effect
Pericentriolar material 1 protein (Homo sapiens), Q15154 D1959M	with no effect
Pericentriolar material 1 protein (Homo sapiens), Q15154 D1959N	with no effect
Pericentriolar material 1 protein (Homo sapiens), Q15154 D1959P	with no effect
Pericentriolar material 1 protein (Homo sapiens), Q15154 D1959Q	with no effect
Pericentriolar material 1 protein (Homo sapiens), Q15154 D1959R	with no effect
Pericentriolar material 1 protein (Homo sapiens), Q15154 D1959S	with no effect
Pericentriolar material 1 protein (Homo sapiens), Q15154 D1959T	with no effect
Pericentriolar material 1 protein (Homo sapiens), Q15154 D1959V	decreasing interaction strength
Pericentriolar material 1 protein (Homo sapiens), Q15154 D1959W	with no effect
Pericentriolar material 1 protein (Homo sapiens), Q15154 D1959Y	with no effect
Pericentriolar material 1 protein (Homo sapiens), Q15154 D1962A	with no effect
Pericentriolar material 1 protein (Homo sapiens), Q15154 D1962C	with no effect
Pericentriolar material 1 protein (Homo sapiens), Q15154 D1962E	with no effect
Pericentriolar material 1 protein (Homo sapiens), Q15154 D1962F	with no effect

Substance	effect of a mutation on the interaction
Pericentriolar material 1 protein (Homo sapiens), Q15154 D1962G	with no effect
Pericentriolar material 1 protein (Homo sapiens), Q15154 D1962H	decreasing interaction strength
Pericentriolar material 1 protein (Homo sapiens), Q15154 D1962I	disrupting interaction strength
Pericentriolar material 1 protein (Homo sapiens), Q15154 D1962K	disrupting interaction strength
Pericentriolar material 1 protein (Homo sapiens), Q15154 D1962L	disrupting interaction strength
Pericentriolar material 1 protein (Homo sapiens), Q15154 D1962M	decreasing interaction strength
Pericentriolar material 1 protein (Homo sapiens), Q15154 D1962N	decreasing interaction strength
Pericentriolar material 1 protein (Homo sapiens), Q15154 D1962P	disrupting interaction strength
Pericentriolar material 1 protein (Homo sapiens), Q15154 D1962Q	decreasing interaction strength
Pericentriolar material 1 protein (Homo sapiens), Q15154 D1962R	decreasing interaction strength
Pericentriolar material 1 protein (Homo sapiens), Q15154 D1962S	with no effect
Pericentriolar material 1 protein (Homo sapiens), Q15154 D1962T	with no effect
Pericentriolar material 1 protein (Homo sapiens), Q15154 D1962V	disrupting interaction strength
Pericentriolar material 1 protein (Homo sapiens), Q15154 D1962W	with no effect
Pericentriolar material 1 protein (Homo sapiens), Q15154 D1962Y	disrupting interaction strength
Pericentriolar material 1 protein (Homo sapiens), Q15154 D1968A	with no effect
Pericentriolar material 1 protein (Homo sapiens), Q15154 D1968C	with no effect
Pericentriolar material 1 protein (Homo sapiens), Q15154 D1968E	with no effect
Pericentriolar material 1 protein (Homo sapiens), Q15154 D1968F	with no effect
Pericentriolar material 1 protein (Homo sapiens), Q15154 D1968G	with no effect
Pericentriolar material 1 protein (Homo sapiens), Q15154 D1968H	with no effect
Pericentriolar material 1 protein (Homo sapiens), Q15154 D1968I	with no effect
Pericentriolar material 1 protein (Homo sapiens), Q15154 D1968K	with no effect

Substance	effect of a mutation on the interaction
Pericentriolar material 1 protein (Homo sapiens), Q15154 D1968L	with no effect
Pericentriolar material 1 protein (Homo sapiens), Q15154 D1968M	with no effect
Pericentriolar material 1 protein (Homo sapiens), Q15154 D1968N	with no effect
Pericentriolar material 1 protein (Homo sapiens), Q15154 D1968P	with no effect
Pericentriolar material 1 protein (Homo sapiens), Q15154 D1968Q	with no effect
Pericentriolar material 1 protein (Homo sapiens), Q15154 D1968R	with no effect
Pericentriolar material 1 protein (Homo sapiens), Q15154 D1968S	with no effect
Pericentriolar material 1 protein (Homo sapiens), Q15154 D1968T	with no effect
Pericentriolar material 1 protein (Homo sapiens), Q15154 D1968V	with no effect
Pericentriolar material 1 protein (Homo sapiens), Q15154 D1968W	with no effect
Pericentriolar material 1 protein (Homo sapiens), Q15154 D1968Y	with no effect
Pericentriolar material 1 protein (Homo sapiens), Q15154 E1960A	with no effect
Pericentriolar material 1 protein (Homo sapiens), Q15154 E1960C	with no effect
Pericentriolar material 1 protein (Homo sapiens), Q15154 E1960D	with no effect
Pericentriolar material 1 protein (Homo sapiens), Q15154 E1960F	with no effect
Pericentriolar material 1 protein (Homo sapiens), Q15154 E1960G	with no effect
Pericentriolar material 1 protein (Homo sapiens), Q15154 E1960H	with no effect
Pericentriolar material 1 protein (Homo sapiens), Q15154 E1960I	with no effect
Pericentriolar material 1 protein (Homo sapiens), Q15154 E1960K	decreasing interaction strength
Pericentriolar material 1 protein (Homo sapiens), Q15154 E1960L	with no effect
Pericentriolar material 1 protein (Homo sapiens), Q15154 E1960M	decreasing interaction strength
Pericentriolar material 1 protein (Homo sapiens), Q15154 E1960N	with no effect
Pericentriolar material 1 protein (Homo sapiens), Q15154 E1960P	with no effect
